Assay results: patent publication US20060286117A1, “Neuronally expressed stem cell factor modulates angiogenesis and neural stem cell migration to areas of brain injury” (priority 2003, published 2006)
Entries after “also recorded” stand apart in the source; their conditions may differ.

Key:
HBMEC = test: EC proliferation, HBMEC exposed to SCF; format: cell-based, human
glioma cells = test: Glioma cell proliferation in vitro with SCF; format: cell-based, human; conditions: even high concentrations of SCF
SVZ stem cells = test: In vivo SVZ cell tracking by ventricular DiI or GFP adenovirus before SCF injection; parameters: species or system mouse; conditions: seven days after SCF injection
Protocol: For labeling of neural progenitors in vivo, BrdU (Roche) was administrated intraperitoneally twice a day, at 8-hour intervals, for 14 days (50 mg/kg body weight). Twenty hour from the last BrdU injection, several animals were killed and their brains were sectioned for BrdU immunostaining. Intracerebral injections were administered to the remaining animals. Stereotaxic surgery was performed as described in the “freeze” injury, and the injections were given at the position of 1 mm anterior to the bregma, 1.5 mm lateral to the midline, and 2.5 mm ventral to the dura. Mice received a suspension of rmSCF (3 μg in 3 μl of PBS; R&D systems) or PBS through a Hamilton syringe. Each injection took 15 min. Seven days from the intracranial injection, the animals were killed and the brains were processed for BrdU immunohistochemical analysis. For ventricular injection of DiI (1,1′-dioctadecyl-6,6′-di(4-sulfophenyl)-3,3,3′,3′-tetrametylindocarbocyanine; Molecular Probes) or adenovirus expressing GFP, 2 μl of 0.2% DiI in DMSO or 2 μl of replication incompetent adenovirus (10^8 plaque-forming units per μl) (He, T. C. et al. 1998 PNAS USA 95:2509-2514) was injected 0.5 mm posterior and 0.7 mm lateral to bregma, and 2 mm below the dura matter into the lateral ventricle. […] Seven days after SCF injection, the brains were sectioned and analyzed for DiI or GFP distributions.

bMVEC-B cells [1] = test: bMVEC-B DNA synthesis by thymidine incorporation (Example 3); format: cell-based; conditions: rmSCF 1 ng/ml to 250 ng/ml, 72 hours
Protocol: To specifically confirm the pro-angiogenic effects of SCF in the brain, bMVEC-B cells were used. The cells were cultured in the presence of different concentrations of rmSCF (1 ng/ml to 250 ng/ml) or 0.1% BSA only medium for 72 hours. The rate of DNA synthesis was measured by thymidine incorporation.

[2] = test system: c-Kit, MAPK and PI3K/Akt pathways in BMVEC-b; test: Immunoblot of SCF/c-Kit signal transduction, BMVEC-b; format: cell-based, bovine
Protocol: (§1) Confluent-grown ECs were treated with 50 ng/ml of SCF for 5, 10, 15, and 30 min after 24 hr of serum starvation. The ECs were collected with RIPA lysis buffer (Upstate, Charlottesville, Va.) containing 50 mM NaF, 1 mM Na3VO4, […], and Protease Inhibitor Cocktail (Roche). The antibodies were purchased from Cell Signaling Technology, Inc. (Beverly, Mass.) or as mentioned otherwise. All the primary antibodies were used in a 1:1000 dilution except for the anti-SCF antibody, which was used in a 1:2000 dilution. The primary antibodies were anti-phospho-c-Kit, anti-phospho-MEK1/2 and anti-MEK1/2, anti-phospho-p44/42 MAPK and anti-p44/42 MAPK, anti-phospho-SAPK/JNK and anti-SAPK/JNK, anti-phospho-p38 MAPK and anti-p38 MAPK, anti-phospho-Akt and anti-Akt, anti-phospho-mTOR and anti-mTOR, anti-phospho-4E-BP1 and anti-4E-BP1, anti-SCF and anti-VEGF (Chemicon, Temecula, Calif.), and anti-β-tubulin (Sigma). Re-blotting was done after membranes were stripped by re-blot kit (Chemicon). Tie2 detection in Matrigel plugs from the in vivo Matrigel assay was carried out by immunoprecipitation and immunoblotting. The gel plugs were carefully separated from muscle and skin and homogenized with RIPA lysis buffer. The resulting total tissue lysates ([…]) were immunoprecipitated with Tie2 antibody (Santa Cruz Biotechnology, Inc., Santa Cruz, Calif.) and then analyzed by immunoblot with Tie2 antibody (Zadeh et al. 2004 Am J Pathol 162:467-476).

HMVEC-d = test: Thymidine incorporation in HMVEC-d exposed to SCF; format: cell-based, human; conditions: basal medium, 48 hr
Protocol: (§2) After ECs (3×10^3/well) were adhered to 96-well gelatin-coated plates (BD Discovery Labware, Bedford, Mass.), the EC growth medium was replaced by SCF ([…]) (R&D Systems, Minneapolis, Minn.) suspended in treatment medium (basal medium with 0.1% BSA) for an additional 48 hr (HUVEC and HMVEC-d) or 72 hr (BMVEC-b) with renewal of medium at 24 hr intervals. ECs were cultured for 4 hr in 0.25 μCi of [^3H]thymidine (Amersham Pharmacia Biotech, Piscataway, N.J.) at the end. High molecular mass [^3H]-radioactivity was precipitated and counted.

bMVEC-B cells [3] = test: bMVEC-B tube formation on matrigel (Example 3); format: cell-based; conditions: vs SCF-absent control
Description: Endothelial cell tube formation on extracellular matrix (ECM) is a commonly used in vitro model of EC differentiation and angiogenesis. We examined the SCF effects on the bMVEC-B cell tube formation.

HUVEC = test: Thymidine incorporation in HUVEC exposed to SCF; format: cell-based, human; conditions: basal medium, 48 hr
Protocol: as §2

[4] = test system: c-Kit, MAPK and PI3K/Akt pathways in HUVEC; test: Immunoblot of SCF/c-Kit signal transduction, HUVEC; format: cell-based, human
Protocol: as §1

BMVEC-b = test: Thymidine incorporation in BMVEC-b exposed to SCF; format: cell-based, bovine; conditions: basal medium
Protocol: as §2

endogenous NSPCs = test: In vivo progenitor cell migration, BrdU labeling and intracerebral rmSCF injection; parameters: species or system mouse; conditions: vs contralateral side and PBS-injected animals, day 7
[5] = SCF 50 ng/ml after serum starvation

B1: SCF: Stem cell factor protein (R&D Systems), ligand of the c-Kit receptor (protein)
chain: KEICGNPVTDNVKDITKLVANLPNDYMITLNYVAGMDVLPSHCWLRDMVIQLSLSLTTLLDKFSNISEGLSNYSIIDKLGKIVDDLVLCMEENAPKNIKESPKRPETRSFTPEEFFSIFNRSIDAFKDFMVASDTSDCVLSSTLGPEKDSRVSVTKPFMLPPVA
For B1, the HBMEC proliferative response (HBMEC; SCF from 0.1 to 10 ng per ml) was “dose-dependent growth”, the “EC growth and survival with SCF alone” value (HBMEC; without the addition of other cytokines such as VEGF) was “sufficient to sustain human brain microvascular EC and other EC cell growth and survival” and the glioma cell proliferation (glioma cells) was “failed to induce proliferation”. The “DiI-labelled cells near the SCF injection site” value (SVZ stem cells; ventricular DiI) was “greater number of DiI positive cells; also recorded: significant numbers of DiI labelled cells”, the “GFP-positive cells in the SCF-injected cortex” value (SVZ stem cells; ventricular GFP adenovirus) was “a large number of GFP-positive cells had migrated” and the “bMVEC-B DNA synthesis (thymidine incorporation)” value (bMVEC-B cells [1]) was “stimulated DNA synthesis”. The “duration of p38 MAPK activation” value ([2]; SCF 50 ng/ml) was “over 30 min”, the “phosphorylation of 4E-BP1” value ([2]; SCF 50 ng/ml) was “increased phosphorylation of 4E-BP1” and the “phosphorylation of Akt” value ([2]; SCF 50 ng/ml) was “significantly enhanced”. For the same molecule, the “phosphorylation of MEK1/2” value ([2]; SCF 50 ng/ml) was “dramatically increased”, the “phosphorylation of p44/42 MAPK” value ([2]; SCF 50 ng/ml) was “dramatically increased” and the “time of SAPK/JNK activation following SCF exposure” value ([2]; SCF 50 ng/ml) was 10 to 15 min. The “duration of c-Kit auto-tyrosine-phosphorylation” value [2, 5] was 30 min, the “time of peak c-Kit auto-tyrosine-phosphorylation” value [2, 5] was 10 to 15 min and the “proliferation (thymidine incorporation)” value (HMVEC-d) was “stimulated proliferation in all three primary ECs in a dose-dependent manner”. For the same molecule, the “bMVEC-B tube formation on matrigel” value (bMVEC-B cells [3]) was “enhanced bMVEC-B cell tube formation; also recorded: at much earlier time point and more completely”, the “proliferation (thymidine incorporation)” value (HUVEC) was “stimulated proliferation in all three primary ECs in a dose-dependent manner” and the “duration of p38 MAPK activation” value ([4]; SCF 50 ng/ml) was “over 30 min”. For the same molecule, the “phosphorylation of 4E-BP1” value ([4]; SCF 50 ng/ml) was “increased phosphorylation of 4E-BP1”, the “phosphorylation of Akt” value ([4]; SCF 50 ng/ml) was “significantly enhanced” and the “phosphorylation of MEK1/2” value ([4]; SCF 50 ng/ml) was “dramatically increased”. The “phosphorylation of p44/42 MAPK” value ([4]; SCF 50 ng/ml) was “dramatically increased”, the “time of SAPK/JNK activation following SCF exposure” value ([4]; SCF 50 ng/ml) was 10 to 15 min and the “duration of c-Kit auto-tyrosine-phosphorylation” value [4, 5] was 30 min. The “time of peak c-Kit auto-tyrosine-phosphorylation” value [4, 5] was 10 to 15 min, the “BMVEC-b proliferation increase (thymidine incorporation)” value (BMVEC-b; 1 ng of SCF per ml for 72 hr) was “approximately 6 fold” and the “BMVEC-b proliferation increase (thymidine incorporation)” value (BMVEC-b; 10 ng of SCF per ml for 72 hr) was about 7 fold. For the same molecule, the “proliferation (thymidine incorporation)” value (BMVEC-b; BMVEC-b, 72 hr) was “stimulated proliferation in all three primary ECs in a dose-dependent manner” and the “BrdU-positive cells in the SCF-injected area” value (endogenous NSPCs) was “Significantly more BrdU labeled cells”.
